Experimental data taken from patent publication US20220025373, “COMPOSITIONS AND METHODS RELATED TO NUCLEIC ACID ANTICOAGULANTS” (North Carolina State University, published 2022).

B1: 2HF-RNA-NNNN (ssRNA)
RNA: GGGAGAUCGAGCGACUUCCGACUUCGGUCGGGAGUCGGGCUAGUCAUCUUCGGAUGAUUAGCCGCUGGUGAAGCCUCCACGCCAGCCUCGGUCUCCCGCAGUAGGAUCGGACUGAAGGAGGCACGGUCCCAGCCGAAGUGUCUUGCUUCGGCAAGGCACUUUGGCUGCUAGACUGGCUGGCUUCGGCCAGCUAGUUUAGGAUUCUAUUGC
modifications: 2'-F at all C and U
B2: 2HF-RNA-2NN1 (ssRNA)
RNA: GGGAGAUCGAGCGACUUCCGACUUCGGUCGGGAGUCGGGCUAGUCAUCUUCGGAUGAUUAGCCGCUGGUGAAGCCUCCACGCCAGCCUCGGUCUCCCGCAGUAGGAUCGGACUGAAGGAGGCACGGUCCCAGCCGAAGUGUCUUGCGGGAACAAAGCUGAAGUACUUACCCGCAAGGCACUUUGGCUGCUAGACUGGCUGGCGGCGGUCGAUCACACAGUUCAAACGUAAUAAGCCAAUGUACGAGGCAGACGACUCGCCGCCAGCUAGUUUAGGAUUCUAUUGC
modifications: 2'-F at all C and U
B3: 2HF-RNA-1N2N (ssRNA)
RNA: GGGAGAUCGAGCGACUUCCGACGGGAACAAAGCUGAAGUACUUACCCGUCGGGAGUCGGGCUAGUCAUCUUCGGAUGAUUAGCCGCUGGUGAAGCCUCCACGCCAGCCUCGGUCUCCCGCAGUAGGAUCGGACUGAAGGAGGCACGGUCCCAGCCGAAGUGUCUGGCGGUCGAUCACACAGUUCAAACGUAAUAAGCCAAUGUACGAGGCAGACGACUCGCCAGGCACUUUGGCUGCUAGACUGGCUGGCUUCGGCCAGCUAGUUUAGGAUUCUAUUGC
modifications: 2'-F at all C and U
B4: Fss12 (ssRNA)
RNA: GGGAACAAAGCUGAAGUACUUACCCACCUUACCACUCCACCUCACUCACCUAUUACGGCGGUCGAUCACACAGUUCAAACGUAAUAAGCCAAUGUACGAGGCAGACGACUCGCC
modifications: 2'-F at all C and U
B5: 2HF-RNA-12NN (ssRNA)
RNA: GGGAGAUCGAGCGACUUCCGACUUCGGUCGGGAGUCGGGCUAGUCAUCGGGAACAAAGCUGAAGUACUUACCCGAUGAUUAGCCGCUGGUGAAGCCUCCACGCCAGCCUCGGUCUCCCGCAGUAGGAUCGGACUGAAGGAGGCACGGUCCCAGCCGAAGUGUCUGGCGGUCGAUCACACAGUUCAAACGUAAUAAGCCAAUGUACGAGGCAGACGACUCGCCAGGCACUUUGGCUGCUAGACUGGCUGGCUUCGGCCAGCUAGUUUAGGAUUCUAUUGC
modifications: 2'-F at all C and U

Columns and labels:
Factor IXa [1] = target: T1, Factor IXa (UniProt P00740;P00740 P00740:47-191,P00740:227-461); experiment: EMSA; 5 pmol RNA + 25 pmol protein, 37 C 1 h; conditions: 2-helix RNA origami with tetraloops and 180 degree kissing loop, no aptamer
Experimental: (§1) Specificity tests of the Th-RNA origami with two proteins (Factor IXa and Xa) involved in the coagulation cascade and one common protein (bovine serum albumin, BSA) were performed. To test specificity, the RNA origami was incubated with protein at 37° C. for one hour and characterized by native acrylamide gel electrophoresis. The non-aptamer presenting on RNA origami (2HF-RNA-NNNN) was not able to bind to all four proteins (FIG. 25). All seven designs of RNA origami with RNA thrombin aptamers (2HF-RNA-12NN, 1N2N, 2NN1, Fss12, 2HF-2211, 3HF-2NN1, and 4HF-2NN1) show the specificity binding with thrombin as results shown in FIGS. 26-28 and FIGS. 42-45).
(§2) For specificity tests, heat-annealed RNA origami or DNA weave tile (5 pmol) was dissolved in 1× annealing buffer and incubated with protein (25 pmol) at 37° C. for 1 hr. The samples were tested by 6% native acrylamide gel electrophoresis in 1×TBE as running buffer at 150 V for 3 hr. The gels were stained with Ethidium bromide for nucleic acid staining and visualized under a UV lamp. Then, the gels were further stained with Coomassie blue for protein staining and imaged with the ProteinSimple instrument.

Factor Xa [2] = target: T2, Factor Xa (UniProt P00742;P00742 P00742:41-179,P00742:235-488); experiment: EMSA; 5 pmol RNA + 25 pmol protein, 37 C 1 h; conditions: 2-helix RNA origami with tetraloops and 180 degree kissing loop, no aptamer
Experimental: as §1, §2

[3] = target: T3, Bovine serum albumin (BSA) (Bos taurus, UniProt P02769 P02769:25-607); experiment: EMSA; 5 pmol RNA + 25 pmol protein, 37 C 1 h; conditions: 2-helix RNA origami with tetraloops and 180 degree kissing loop, no aptamer
Experimental: as §1, §2

Thrombin [4] = target: T4, Thrombin (UniProt P00734;P00734 P00734:328-363,P00734:364-622); experiment: EMSA; 5 pmol RNA + 25 pmol protein, 1x annealing buffer, 37 C 1 h, 6% native PAGE
Thrombin [5] = target: T4, Thrombin; experiment: EMSA; 5 pmol RNA + 25 pmol protein, 37 C 1 h
Factor IXa [6] = target: T1, Factor IXa; experiment: EMSA; 37 C 1 h
Experimental: as §1, §2

Factor Xa [7] = target: T2, Factor Xa; experiment: EMSA; 37 C 1 h
Experimental: as §1, §2

[8] = target: T3, Bovine serum albumin (BSA); experiment: EMSA; 37 C 1 h
Experimental: as §1, §2

[9] = 2-helix RNA origami with exosite 1 and exosite 2 aptamers
[10] = two aptamers (exosite 2 and exosite 1) joined by 31 nt single-stranded linker
[11] = 2-helix RNA origami with exosite 1 aptamer (RNAR9D-14T) and exosite 2 aptamer (Toggle-25t)

T3 sequence (P02769 25-607, one chain of several): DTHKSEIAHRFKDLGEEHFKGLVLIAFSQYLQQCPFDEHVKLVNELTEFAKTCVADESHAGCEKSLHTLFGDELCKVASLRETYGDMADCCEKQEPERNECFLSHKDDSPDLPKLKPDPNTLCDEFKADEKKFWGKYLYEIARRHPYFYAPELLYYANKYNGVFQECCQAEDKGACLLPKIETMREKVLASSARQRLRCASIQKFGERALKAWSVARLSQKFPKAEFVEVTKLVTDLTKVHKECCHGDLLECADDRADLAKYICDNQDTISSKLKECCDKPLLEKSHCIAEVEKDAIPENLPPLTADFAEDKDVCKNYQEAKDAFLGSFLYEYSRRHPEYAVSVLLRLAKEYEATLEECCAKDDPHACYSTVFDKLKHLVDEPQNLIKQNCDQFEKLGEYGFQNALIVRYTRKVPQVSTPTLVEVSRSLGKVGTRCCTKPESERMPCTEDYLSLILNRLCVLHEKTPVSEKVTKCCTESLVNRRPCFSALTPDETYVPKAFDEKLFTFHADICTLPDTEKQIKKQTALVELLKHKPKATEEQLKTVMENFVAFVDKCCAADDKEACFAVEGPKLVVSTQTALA
T2 sequence (P00742 41-179, chain 1 of 2): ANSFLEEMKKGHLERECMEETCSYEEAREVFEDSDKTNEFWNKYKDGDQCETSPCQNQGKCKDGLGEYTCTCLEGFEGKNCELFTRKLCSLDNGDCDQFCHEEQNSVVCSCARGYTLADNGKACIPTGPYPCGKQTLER
T2 sequence (P00742 235-488, chain 2 of 2): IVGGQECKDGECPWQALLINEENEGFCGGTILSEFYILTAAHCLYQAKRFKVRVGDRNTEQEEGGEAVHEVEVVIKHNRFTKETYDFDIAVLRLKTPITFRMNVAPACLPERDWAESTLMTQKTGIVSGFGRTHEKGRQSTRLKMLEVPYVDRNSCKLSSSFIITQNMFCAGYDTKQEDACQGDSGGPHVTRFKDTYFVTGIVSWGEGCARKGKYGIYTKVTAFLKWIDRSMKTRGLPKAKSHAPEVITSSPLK
T1 sequence (P00740 47-191, chain 1 of 2): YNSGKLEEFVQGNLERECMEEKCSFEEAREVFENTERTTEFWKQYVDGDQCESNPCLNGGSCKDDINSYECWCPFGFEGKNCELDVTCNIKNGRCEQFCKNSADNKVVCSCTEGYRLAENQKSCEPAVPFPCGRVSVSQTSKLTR
T1 sequence (P00740 227-461, chain 2 of 2): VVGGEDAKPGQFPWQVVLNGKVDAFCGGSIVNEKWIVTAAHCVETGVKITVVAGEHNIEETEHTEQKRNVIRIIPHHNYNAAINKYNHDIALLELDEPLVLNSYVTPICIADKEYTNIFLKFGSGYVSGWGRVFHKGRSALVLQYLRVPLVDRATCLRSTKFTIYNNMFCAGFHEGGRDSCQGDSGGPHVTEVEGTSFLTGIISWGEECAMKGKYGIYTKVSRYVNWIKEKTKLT

Binder	binding result (Thrombin [5])	binding result (Factor IXa [6]; [9])	binding result (Factor Xa [7]; [9])	binding result [8, 9]	other results
B1					binding result (Factor IXa [1]): no binding; binding result (Factor Xa [2]): no binding; binding result [3]: no binding; binding result (Thrombin [4]): no binding
B2	binds	no binding	no binding	no binding	
B3	binds	no binding	no binding	no binding	
B4	binds				binding result (Factor IXa [6]; [10]): no binding; binding result (Factor Xa [7]; [10]): no binding; binding result [8, 10]: no binding
B5	binds				binding result (Factor IXa [6]; [11]): no binding; binding result (Factor Xa [7]; [11]): no binding; binding result [8, 11]: no binding
